{"source": "patent US20060099689", "key": {"TRX-EK-mIL15": {"molecular_target": "T1, TRX-EK-mIL15 (UniProt P48346)", "T1 sequence": "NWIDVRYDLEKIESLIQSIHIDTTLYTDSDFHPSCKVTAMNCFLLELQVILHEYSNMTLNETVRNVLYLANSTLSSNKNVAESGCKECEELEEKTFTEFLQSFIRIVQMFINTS"}, "[1]": {"system": "TRX-EK-hIFNa [thioredoxin: P0AA25]", "sequence (P0AA25 whole entry, looked up)": "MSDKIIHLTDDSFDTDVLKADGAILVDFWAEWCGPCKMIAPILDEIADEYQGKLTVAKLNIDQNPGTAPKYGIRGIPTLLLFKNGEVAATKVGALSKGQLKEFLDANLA"}, "H-GST-T-mLIF": {"molecular_target": "H-GST-T-mLIF (UniProt P09056)"}, "H-GST-DEVD/S-mLIF": {"molecular_target": "H-GST-DEVD/S-mLIF (UniProt P09056)"}, "H-GST-DEVD/mLIF": {"molecular_target": "H-GST-DEVD/mLIF (UniProt P09056)"}}, "data": [{"substance": "Enterokinase", "values": [{"measurement": "cleavage of the fusion protein (gel, FIG. 3a)", "setting": "TRX-EK-mIL15", "value": "Cleavage with enterokinase required a long incubation time in order to process the molecule. In the end, the molecule was processed"}, {"measurement": "processing of the fusion protein (gel, FIG. 3b)", "setting": "[1]", "value": "16 h incubation with Enterokinase resulted in only a minor amount of processing of the fusion protein"}]}, {"substance": "Thrombin", "values": [{"measurement": "time needed for processing", "setting": "H-GST-T-mLIF", "value": "up to 16 h were needed to process the H-GST-T-mLIF fusion protein with Thrombin"}]}, {"substance": "reverse Caspase-7", "values": [{"measurement": "cleavage of the fusion protein (gel, FIG. 7)", "setting": "GST-C-hIFNα", "value": "Both mLIF and hIFN alpha were cut efficiently using Either Caspase-3 or reverse Caspase-7, with either the recognition site DEVD/ or DEVD/S"}, {"measurement": "cleavage of the fusion protein (gel, FIG. 7)", "setting": "H-GST-DEVD/S-mLIF", "value": "Both mLIF and hIFN alpha were cut efficiently using Either Caspase-3 or reverse Caspase-7, with either the recognition site DEVD/ or DEVD/S"}, {"measurement": "cleavage of the fusion protein (gel, FIG. 7)", "setting": "H-GST-DEVD/mLIF", "value": "Both mLIF and hIFN alpha were cut efficiently using Either Caspase-3 or reverse Caspase-7, with either the recognition site DEVD/ or DEVD/S"}]}]}
